The target of one data set is T1, compound 1 (not fully specified).
T1 chain: KLTCLASYCWLF

In another data set the target is T2, compound 5.
T2 chain: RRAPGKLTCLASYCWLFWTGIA

B1: mouse FIXa (protein)
chain: YNSGKLEEFVRGNLERECIEERCSFEEAREVFENTEKTTEFWKQYVDGDQCESNPCLNGGICKDDISSYECWCQVGFEGRNCELDATCNIKNGRCKQFCKNSPDNKVICSCTEGYQLAEDQKSCEPTVPFPCGRASISYSSKKITRAETVFSNMDYENSTEAVFIQDDITDGAILNNVTESSESLNDFTRVVGGENAKPGQIPWQVILNGEIEAFCGGAIINEKWIVTAAHCLKPGDKIEVVAGEYNIDKKEDTEQRRNVIRTIPHHQYNATINKYSHDIALLELDKPLILNSYVTPICVANREYTNIFLKFGSGYVSGWGKVFNKGRQASILQYLRVPLVDRATCLRSTTFTIYNNMFCAGYREGGKDSCEGDSGGPHVTEVEGTSFLTGIISWGEECAMKGKYGIYTKVSRYVNWIKEKTKLT
With B1, the “Vmax, FXa generation assay” value with compound 1 is on record as “the Vmax is greatly reduced with mFIXa compared to hFIXa”.

B2: human Factor VIIa (protein)
chain: ANAFLEELRPGSLERECKEEQCSFEEAREIFKDAERTKLFWISYSDGDQCASSPCQNGGSCKDQLQSYICFCLPAFEGRNCETHKDDQLICVNENGGCEQYCSDHTGTKRSCRCHEGYSLLADGVSCTPTVEYPCGKIPILEKRNASKPQGRIVGGKVCPKGECPWQVLLLVNGAQLCGGTLINTIWVVSAAHCFDKIKNWRNLIAVLGEHDLSEHDGDEQSRRVAQVIIPSTYVPGTTNHDIALLRLHQPVVLTDHVVPLCLPERTFSERTLAFVRFSLVSGWGQLLDRGATALELMVLNVPRLMTQDCLQQSRKVGDSPNITEYMFCAGYSDGSKDSCKGDSGGPHATHYRGTWYLTGIVSWGQGCATVGHFGVYTRVSQYIEWLQKLMRSEPRPGVLLRAPFP
Turning to B2, in the data set with compound 5, the Δ kM of FVIIa, FXa generation assay is 0.3 and the Δ kcat of FVIIa, FXa generation assay was found to be 2420 fold.

The values above are taken from US20140303084.
